Results reported in PMC8091981 (Genes & Development, 2021).

Target: T1, Spt6-YW-FLAG (Y255A, W257A) (S. cerevisiae, UniProt P23615 1-1451, Y255A | W257A)
T1 sequence (looked up): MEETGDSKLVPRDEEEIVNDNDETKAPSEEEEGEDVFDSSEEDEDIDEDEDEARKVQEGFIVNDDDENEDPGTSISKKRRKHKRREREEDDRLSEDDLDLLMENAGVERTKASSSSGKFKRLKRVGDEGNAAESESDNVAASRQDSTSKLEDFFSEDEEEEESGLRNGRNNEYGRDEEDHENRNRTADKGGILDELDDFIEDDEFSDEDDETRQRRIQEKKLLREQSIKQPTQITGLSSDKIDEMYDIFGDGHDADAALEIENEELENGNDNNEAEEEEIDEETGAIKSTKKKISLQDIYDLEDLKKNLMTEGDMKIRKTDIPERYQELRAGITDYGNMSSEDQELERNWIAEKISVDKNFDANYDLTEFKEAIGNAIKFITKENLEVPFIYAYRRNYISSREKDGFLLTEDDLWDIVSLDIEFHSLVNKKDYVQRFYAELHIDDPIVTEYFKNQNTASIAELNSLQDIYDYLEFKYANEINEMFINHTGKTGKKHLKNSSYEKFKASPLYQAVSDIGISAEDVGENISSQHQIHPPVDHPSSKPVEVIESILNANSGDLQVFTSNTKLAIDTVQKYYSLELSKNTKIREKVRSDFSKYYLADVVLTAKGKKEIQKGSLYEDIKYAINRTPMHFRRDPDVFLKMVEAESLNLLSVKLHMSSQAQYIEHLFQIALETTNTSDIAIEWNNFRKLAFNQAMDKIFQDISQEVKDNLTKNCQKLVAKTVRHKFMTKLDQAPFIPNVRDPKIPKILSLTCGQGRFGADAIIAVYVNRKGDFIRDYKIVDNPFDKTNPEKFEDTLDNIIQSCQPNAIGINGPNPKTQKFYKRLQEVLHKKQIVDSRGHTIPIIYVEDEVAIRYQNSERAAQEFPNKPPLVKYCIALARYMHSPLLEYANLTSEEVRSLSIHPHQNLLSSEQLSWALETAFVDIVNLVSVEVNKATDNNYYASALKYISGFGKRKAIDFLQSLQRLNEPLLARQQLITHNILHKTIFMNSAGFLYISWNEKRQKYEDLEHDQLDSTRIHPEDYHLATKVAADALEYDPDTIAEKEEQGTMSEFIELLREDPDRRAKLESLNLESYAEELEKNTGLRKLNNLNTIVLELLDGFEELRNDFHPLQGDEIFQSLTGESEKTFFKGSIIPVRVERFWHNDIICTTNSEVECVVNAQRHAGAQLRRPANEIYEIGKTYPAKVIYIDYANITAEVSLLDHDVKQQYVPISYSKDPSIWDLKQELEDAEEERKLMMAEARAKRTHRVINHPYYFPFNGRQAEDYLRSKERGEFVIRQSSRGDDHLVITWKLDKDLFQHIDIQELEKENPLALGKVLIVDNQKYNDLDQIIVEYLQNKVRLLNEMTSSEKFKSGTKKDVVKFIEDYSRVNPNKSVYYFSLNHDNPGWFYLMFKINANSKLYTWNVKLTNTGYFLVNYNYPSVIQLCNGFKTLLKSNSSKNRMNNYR
Test: co-IP

- fold decrease of co-IP against wild-type Spt6-FLAG: 20 fold
B1: Spn1 (natural protein, S. cerevisiae, UniProt Q06505 1-410, looked up)
chain: MSTADQEQPKVVEATPEDGTASSQKSTINAENENTKQNQSMEPQETSKGTSNDTKDPDNGEKNEEAAIDENSNVEAAERKRKHISTDFSDDDLEKEEHNDQSLQPTVENRASKDRDSSATPSSRQELEEKLDRILKKPKVRRTRRDEDDLEQYLDEKILRLKDEMNIAAQLDIDTLNKRIETGDTSLIAMQKVKLLPKVVSVLSKANLADTILDNNLLQSVRIWLEPLPDGSLPSFEIQKSLFAALNDLPVKTEHLKESGLGRVVIFYTKSKRVEAQLARLAEKLIAEWTRPIIGASDNYRDKRIMQLEFDSEKLRKKSVMDSAKNRKKKSKSGEDPTSRGSSVQTLYEQAAARRNRAAAPAQTTTDYKYAPVSNLSAVPTNARAVGVGSTLNNSEMYKRLTSRLNKKHK
